The data set is described as follows: melting temperature; melt of duplexes. Conditions: sodium 0.0675 M; strand 1 µM.
For “CGACGTGCGTTATGTGCTG+CAGCACATTCGGCACGTCG ((((((((...((((((((+))))))))...))))))))”, the Tm stood at 49.8 °C.
Next, “CGACGTGCATTATGTGCTG+CAGCACATGGTGCACGTCG (((((((((..((((((((+))))))))..)))))))))”: 51.8 °C; “CGACGTGCAAAATGTGCTG+CAGCACATAAAGCACGTCG ((((((((...((((((((+))))))))...))))))))”: 50.8 °C.
The figure for “CGACGTGCCGCATGTGCTG+CAGCACATAGAGCACGTCG ((((((((...((((((((+))))))))...))))))))” is 50.7 °C.
As to “CGACGTGCTCTATGTGCTG+CAGCACATTTGGCACGTCG ((((((((...((((((((+))))))))...))))))))”, the melting temperature (Tm) is 50.1 °C.
Regarding “CGACGTGCGCAATGTGCTG+CAGCACATACGGCACGTCG ((((((((...((((((((+))))))))...))))))))”, the Tm was determined as 48.6 °C.
“CGACGTGCTGCATGTGCTG+CAGCACATTTGGCACGTCG ((((((((...((((((((+))))))))...))))))))”: the Tm came to 49.1 °C.
Turning to “CGACGTGCGATATGTGCTG+CAGCACATGGGGCACGTCG ((((((((...((((((((+))))))))...))))))))”, the Tm came to 51.3 °C.
Next, “CGACGTGCTTCATGTGCTG+CAGCACATGGAGCACGTCG (((((((((.(((((((((+))))))))).)))))))))”: 60 °C; “CGACGTGCTAGATGTGCTG+CAGCACATATAGCACGTCG ((((((((((.((((((((+)))))))).))))))))))”: 57.6 °C.
Next, “CGACGTGCACTATGTGCTG+CAGCACATTAAGCACGTCG ((((((((...((((((((+))))))))...))))))))”: 44.3 °C; “CGACGTGCGCCATGTGCTG+CAGCACATACGGCACGTCG ((((((((...((((((((+))))))))...))))))))”: 46.6 °C.
With “CGACGTGCGTGATGTGCTG+CAGCACATGTAGCACGTCG ((((((((...((((((((+))))))))...))))))))”, the Tm amounted to 53.3 °C.
Next, “CGACGTGCATAATGTGCTG+CAGCACATGGTGCACGTCG (((((((((..((((((((+))))))))..)))))))))”: 52.6 °C; “CGACGTGCCGTATGTGCTG+CAGCACATGTGGCACGTCG (((((((((..((((((((+))))))))..)))))))))”: 55.7 °C; “CGACGTGCCGGATGTGCTG+CAGCACATCAGGCACGTCG (((((((((.(((((((((+))))))))).)))))))))”: 62.6 °C.
The figure for “CGACGTGCAAGATGTGCTG+CAGCACATTAGGCACGTCG ((((((((...((((((((+))))))))...))))))))” is 51.3 °C.
Regarding “CGACGTGCGAAATGTGCTG+CAGCACATTATGCACGTCG ((((((((..(((((((((+)))))))))..))))))))”, the Tm was found to be 53.6 °C.
Turning to “CGACGTGCAGCATGTGCTG+CAGCACATGGAGCACGTCG ((((((((..(((((((((+)))))))))..))))))))”, the Tm was determined as 54.1 °C.
Next, “CGACGTGCAATATGTGCTG+CAGCACATTGTGCACGTCG (((((((((..((((((((+))))))))..)))))))))”: 49.1 °C; “CGACGTGCTAGATGTGCTG+CAGCACATAGTGCACGTCG ((((((((...((((((((+))))))))...))))))))”: 46.1 °C.
Next, “CGACGTGCCCTATGTGCTG+CAGCACATGATGCACGTCG ((((((((...((((((((+))))))))...))))))))”: 48.6 °C.
With “CGACGTGCCTCATGTGCTG+CAGCACATGTGGCACGTCG (((((((((.(((((((((+))))))))).)))))))))”, the Tm turned out to be 59.8 °C.
The figure for “CGACGTGCCCGATGTGCTG+CAGCACATAATGCACGTCG ((((((((...((((((((+))))))))...))))))))” is 48.1 °C; for “CGACGTGCTCGATGTGCTG+CAGCACATTCGGCACGTCG ((((((((...((((((((+))))))))...))))))))” it is 52.3 °C.
The figure for “CGACGTGCGGAATGTGCTG+CAGCACATGGTGCACGTCG ((((((((...((((((((+))))))))...))))))))” is 52.2 °C; for “CGACGTGCTGGATGTGCTG+CAGCACATCAGGCACGTCG ((((((((..(((((((((+)))))))))..))))))))” it is 56.7 °C; for “CGACGTGCACAATGTGCTG+CAGCACATTCTGCACGTCG (((((((((.(((((((((+))))))))).)))))))))” it is 51.7 °C.
The figure for “CGACGTGCGATATGTGCTG+CAGCACATTGAGCACGTCG ((((((((...((((((((+))))))))...))))))))” is 57.2 °C; for “CGACGTGCCACATGTGCTG+CAGCACATACCGCACGTCG ((((((((...((((((((+))))))))...))))))))” it is 46.7 °C; for “CGACGTGCCGAATGTGCTG+CAGCACATGCCGCACGTCG ((((((((.(.((((((((+)))))))).).))))))))” it is 51.5 °C.
In the case of “CGACGTGCGCAATGTGCTG+CAGCACATGGCGCACGTCG ((((((((((.((((((((+)))))))).))))))))))”, the Tm came out at 63 °C.
Consider “CGACGTGCACGATGTGCTG+CAGCACATGGGGCACGTCG ((((((((.(.((((((((+)))))))).).))))))))”, for which the midpoint of thermal melting (Tm) is 54.9 °C.
The figure for “CGACGTGCTATATGTGCTG+CAGCACATTAGGCACGTCG ((((((((...((((((((+))))))))...))))))))” is 51.4 °C.
In the case of “CGACGTGCTTGATGTGCTG+CAGCACATTTCGCACGTCG ((((((((...((((((((+))))))))...))))))))”, the Tm stood at 48.5 °C.
On to “CGACGTGCTTCATGTGCTG+CAGCACATATAGCACGTCG (((((((((..((((((((+))))))))..)))))))))”, for which the midpoint of thermal melting (Tm) stood at 51.5 °C.
The figure for “CGACGTGCGACATGTGCTG+CAGCACATCAAGCACGTCG ((((((((...((((((((+))))))))...))))))))” is 52.6 °C.
Next, “CGACGTGCTTGATGTGCTG+CAGCACATGCCGCACGTCG ((((((((...((((((((+))))))))...))))))))”: 47.8 °C; “CGACGTGCAACATGTGCTG+CAGCACATGACGCACGTCG ((((((((..(((((((((+)))))))))..))))))))”: 50.9 °C.
For “CGACGTGCCCGATGTGCTG+CAGCACATTAAGCACGTCG ((((((((...((((((((+))))))))...))))))))”, the melting temperature (Tm) worked out at 49.5 °C.
The figure for “CGACGTGCTATATGTGCTG+CAGCACATTCAGCACGTCG (((((((((..((((((((+))))))))..)))))))))” is 51 °C.
The figure for “CGACGTGCAGGATGTGCTG+CAGCACATGGAGCACGTCG ((((((((...((((((((+))))))))...))))))))” is 50.3 °C; for “CGACGTGCCTTATGTGCTG+CAGCACATTGCGCACGTCG ((((((((...((((((((+))))))))...))))))))” it is 48.4 °C.
The figure for “CGACGTGCCGTATGTGCTG+CAGCACATATTGCACGTCG ((((((((..(((((((((+)))))))))..))))))))” is 51.5 °C; for “CGACGTGCGCTATGTGCTG+CAGCACATAGAGCACGTCG ((((((((.((((((((((+)))))))))).))))))))” it is 58.7 °C; for “CGACGTGCAGGATGTGCTG+CAGCACATAGCGCACGTCG ((((((((...((((((((+))))))))...))))))))” it is 49.6 °C.
In the case of “CGACGTGCCATATGTGCTG+CAGCACATCCCGCACGTCG ((((((((...((((((((+))))))))...))))))))”, the Tm came out at 46.9 °C.
As for “CGACGTGCCTGATGTGCTG+CAGCACATGAGGCACGTCG ((((((((((.((((((((+)))))))).))))))))))”, the Tm was 58.5 °C.
Next, “CGACGTGCTCTATGTGCTG+CAGCACATGACGCACGTCG ((((((((...((((((((+))))))))...))))))))”: 47 °C.
Turning to “CGACGTGCTACATGTGCTG+CAGCACATGCAGCACGTCG (((((((((.(((((((((+))))))))).)))))))))”, the Tm amounted to 58.1 °C.
Take “CGACGTGCCGAATGTGCTG+CAGCACATAGTGCACGTCG ((((((((...((((((((+))))))))...))))))))”: the Tm was determined as 45.9 °C.
The figure for “CGACGTGCAGAATGTGCTG+CAGCACATGACGCACGTCG ((((((((...((((((((+))))))))...))))))))” is 53.1 °C; for “CGACGTGCCCTATGTGCTG+CAGCACATAAAGCACGTCG ((((((((..(((((((((+)))))))))..))))))))” it is 50 °C.
For the substance “CGACGTGCTAGATGTGCTG+CAGCACATATTGCACGTCG ((((((((.(.((((((((+)))))))).).))))))))”, the Tm came to 52.5 °C.
The figure for “CGACGTGCTTTATGTGCTG+CAGCACATTTCGCACGTCG ((((((((...((((((((+))))))))...))))))))” is 47.7 °C; for “CGACGTGCGGGATGTGCTG+CAGCACATAGCGCACGTCG (((((((((..((((((((+))))))))..)))))))))” it is 57.4 °C.
Next, “CGACGTGCAAAATGTGCTG+CAGCACATGAAGCACGTCG ((((((((...((((((((+))))))))...))))))))”: 53.7 °C.
For “CGACGTGCAACATGTGCTG+CAGCACATCTGGCACGTCG ((((((((.(.((((((((+)))))))).).))))))))”, the melting temperature (Tm) was found to be 48.9 °C.
“CGACGTGCACGATGTGCTG+CAGCACATCATGCACGTCG (((((((((.(((((((((+))))))))).)))))))))”: the Tm came to 55.3 °C.
The figure for “CGACGTGCACTATGTGCTG+CAGCACATTCAGCACGTCG ((((((((...((((((((+))))))))...))))))))” is 43.4 °C; for “CGACGTGCTTAATGTGCTG+CAGCACATCAAGCACGTCG ((((((((((.((((((((+)))))))).))))))))))” it is 55 °C; for “CGACGTGCTCGATGTGCTG+CAGCACATAGGGCACGTCG ((((((((.(.((((((((+)))))))).).))))))))” it is 55.4 °C.
For “CGACGTGCTTGATGTGCTG+CAGCACATACGGCACGTCG ((((((((...((((((((+))))))))...))))))))”, the Tm worked out at 49.2 °C.
The figure for “CGACGTGCGGAATGTGCTG+CAGCACATTGTGCACGTCG ((((((((..(((((((((+)))))))))..))))))))” is 53.9 °C; for “CGACGTGCATTATGTGCTG+CAGCACATATTGCACGTCG (((((((((.(((((((((+))))))))).)))))))))” it is 54.5 °C; for “CGACGTGCGGAATGTGCTG+CAGCACATACCGCACGTCG ((((((((((.((((((((+)))))))).))))))))))” it is 60.2 °C.

Source of the values: the array DNA melting data of Ke et al..
